T1: recombinant human MASP1 active protease (amino acids 297-699, C-terminal His Tag) (human, UniProt P48740 297-699)
T1 sequence: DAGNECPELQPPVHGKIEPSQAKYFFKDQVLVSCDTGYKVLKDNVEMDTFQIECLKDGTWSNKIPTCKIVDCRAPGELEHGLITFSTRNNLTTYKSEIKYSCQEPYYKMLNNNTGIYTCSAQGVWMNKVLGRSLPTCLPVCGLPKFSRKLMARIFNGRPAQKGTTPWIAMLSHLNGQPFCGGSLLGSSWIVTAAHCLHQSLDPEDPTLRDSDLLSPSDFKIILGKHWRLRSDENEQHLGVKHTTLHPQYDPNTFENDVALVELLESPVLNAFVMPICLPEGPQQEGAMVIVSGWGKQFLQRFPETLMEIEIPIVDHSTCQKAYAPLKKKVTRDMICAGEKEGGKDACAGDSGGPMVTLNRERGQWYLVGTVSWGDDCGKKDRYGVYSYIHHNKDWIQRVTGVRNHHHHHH

T2: recombinant rat MASP1 active protease (amino acids 302-704, C-terminal His Tag) (rat, UniProt Q8CHN8 302-704)
T2 sequence: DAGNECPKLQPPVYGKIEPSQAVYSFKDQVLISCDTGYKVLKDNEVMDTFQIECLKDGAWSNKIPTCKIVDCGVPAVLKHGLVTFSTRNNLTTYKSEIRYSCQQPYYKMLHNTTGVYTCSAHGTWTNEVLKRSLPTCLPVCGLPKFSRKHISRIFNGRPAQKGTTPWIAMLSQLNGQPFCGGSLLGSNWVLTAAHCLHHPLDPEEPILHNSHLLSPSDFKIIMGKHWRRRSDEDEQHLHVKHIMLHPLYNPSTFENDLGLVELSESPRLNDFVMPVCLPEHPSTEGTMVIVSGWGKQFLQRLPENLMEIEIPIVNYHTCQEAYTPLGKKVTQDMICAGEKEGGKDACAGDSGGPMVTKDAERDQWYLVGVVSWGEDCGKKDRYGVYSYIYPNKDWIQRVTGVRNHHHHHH

B1: (Orn)-IC+SRS-((tBu)A)-PPI-(Pen)+IPD-NH2 (peptide)
peptide: [Orn]ICSRS[tBuAla]PPI[Pen]IPD-NH2
modifications: disulfide 3-11; N-terminus assumed
SMILES: CC[C@H](C)[C@H](NC(=O)[C@@H](N)CCCN)C(=O)N[C@H]1CSSC(C)(C)[C@@H](C(=O)N[C@H](C(=O)N2CCC[C@H]2C(=O)N[C@@H](CC(=O)O)C(N)=O)[C@@H](C)CC)NC(=O)[C@H]([C@@H](C)CC)NC(=O)[C@@H]2CCCN2C(=O)[C@@H]2CCCN2C(=O)[C@H](CC(C)(C)C)NC(=O)[C@H](CO)NC(=O)[C@H](CCCNC(=N)N)NC(=O)[C@H](CO)NC1=O
B2: aIC+SRS-((tBu)A)-PPI-(Pen)+IPD-NH2 (peptide)
peptide: [dA]ICSRS[tBuAla]PPI[Pen]IPD-NH2
modifications: disulfide 3-11; N-terminus assumed
SMILES: CC[C@H](C)[C@H](NC(=O)[C@@H](C)N)C(=O)N[C@H]1CSSC(C)(C)[C@@H](C(=O)N[C@H](C(=O)N2CCC[C@H]2C(=O)N[C@@H](CC(=O)O)C(N)=O)[C@@H](C)CC)NC(=O)[C@H]([C@@H](C)CC)NC(=O)[C@@H]2CCCN2C(=O)[C@@H]2CCCN2C(=O)[C@H](CC(C)(C)C)NC(=O)[C@H](CO)NC(=O)[C@H](CCCNC(=N)N)NC(=O)[C@H](CO)NC1=O
B3: Example 278: AIC+SR-(allo-T)-LPPIC+IPD-NH2 (peptide)
peptide: AICSR[aThr]LPPICIPD-NH2
modifications: disulfide 3-11; N-terminus assumed
SMILES: CC[C@H](C)[C@H](NC(=O)[C@H](C)N)C(=O)N[C@H]1CSSC[C@@H](C(=O)N[C@H](C(=O)N2CCC[C@H]2C(=O)N[C@@H](CC(=O)O)C(N)=O)[C@@H](C)CC)NC(=O)[C@H]([C@@H](C)CC)NC(=O)[C@@H]2CCCN2C(=O)[C@@H]2CCCN2C(=O)[C@H](CC(C)C)NC(=O)[C@H]([C@H](C)O)NC(=O)[C@H](CCCNC(=N)N)NC(=O)[C@H](CO)NC1=O
B4: Example 479: (Orn)-IC+SRS-((tBu)A)-PPI-((N-Me)C)+IPD-OH (peptide)
peptide: [Orn]ICSRS[tBuAla]PPI[NMeC]IPD-OH
modifications: disulfide 3-11; N-terminus assumed
SMILES: CC[C@H](C)[C@H](NC(=O)[C@@H](N)CCCN)C(=O)N[C@H]1CSSC[C@@H](C(=O)N[C@H](C(=O)N2CCC[C@H]2C(=O)N[C@@H](CC(=O)O)C(=O)O)[C@@H](C)CC)N(C)C(=O)[C@H]([C@@H](C)CC)NC(=O)[C@@H]2CCCN2C(=O)[C@@H]2CCCN2C(=O)[C@H](CC(C)(C)C)NC(=O)[C@H](CO)NC(=O)[C@H](CCCNC(=N)N)NC(=O)[C@H](CO)NC1=O
B5: Example 348: GIC+SRSLPPIC+I-(Hyp)-D-OH (peptide)
peptide: GICSRSLPPICI[Hyp]D-OH
modifications: disulfide 3-11; N-terminus assumed
SMILES: CC[C@H](C)[C@H](NC(=O)CN)C(=O)N[C@H]1CSSC[C@@H](C(=O)N[C@H](C(=O)N2C[C@H](O)C[C@H]2C(=O)N[C@@H](CC(=O)O)C(=O)O)[C@@H](C)CC)NC(=O)[C@H]([C@@H](C)CC)NC(=O)[C@@H]2CCCN2C(=O)[C@@H]2CCCN2C(=O)[C@H](CC(C)C)NC(=O)[C@H](CO)NC(=O)[C@H](CCCNC(=N)N)NC(=O)[C@H](CO)NC1=O
B6: Example 287: ((N-Me)G)-IC+SRSLPPIC+I-((trans-4-Fluoro)P)-D-OH (peptide)
peptide: [Sar]ICSRSLPPICI[Pro(trans-4-F)]D-OH
modifications: disulfide 3-11; N-terminus assumed
SMILES: CC[C@H](C)[C@H](NC(=O)CNC)C(=O)N[C@H]1CSSC[C@@H](C(=O)N[C@H](C(=O)N2C[C@H](F)C[C@H]2C(=O)N[C@@H](CC(=O)O)C(=O)O)[C@@H](C)CC)NC(=O)[C@H]([C@@H](C)CC)NC(=O)[C@@H]2CCCN2C(=O)[C@@H]2CCCN2C(=O)[C@H](CC(C)C)NC(=O)[C@H](CO)NC(=O)[C@H](CCCNC(=N)N)NC(=O)[C@H](CO)NC1=O
B7: Example 282: ((N-Me)G)-IC+SRSLPP-(Chg)-C+IPD-NH2 (peptide)
peptide: [Sar]ICSRSLPP[Chg]CIPD-NH2
modifications: disulfide 3-11; N-terminus assumed
SMILES: CC[C@H](C)[C@H](NC(=O)CNC)C(=O)N[C@H]1CSSC[C@@H](C(=O)N[C@H](C(=O)N2CCC[C@H]2C(=O)N[C@@H](CC(=O)O)C(N)=O)[C@@H](C)CC)NC(=O)[C@H](C2CCCCC2)NC(=O)[C@@H]2CCCN2C(=O)[C@@H]2CCCN2C(=O)[C@H](CC(C)C)NC(=O)[C@H](CO)NC(=O)[C@H](CCCNC(=N)N)NC(=O)[C@H](CO)NC1=O
B8: Example 289: ((N-Me)G)-IC+SRSLPP-IC+I-((2-Me)P)-D-OH (peptide)
peptide: [Sar]ICSRSLPPICI[αMeP]D-OH
modifications: disulfide 3-11; N-terminus assumed
SMILES: CC[C@H](C)[C@H](NC(=O)CNC)C(=O)N[C@H]1CSSC[C@@H](C(=O)N[C@H](C(=O)N2CCC[C@@]2(C)C(=O)N[C@@H](CC(=O)O)C(=O)O)[C@@H](C)CC)NC(=O)[C@H]([C@@H](C)CC)NC(=O)[C@@H]2CCCN2C(=O)[C@@H]2CCCN2C(=O)[C@H](CC(C)C)NC(=O)[C@H](CO)NC(=O)[C@H](CCCNC(=N)N)NC(=O)[C@H](CO)NC1=O
B9: Example 313: ((N-Me)G)-IC+SRSLPPIC+I-(Abu)-D-OH (peptide)
peptide: [Sar]ICSRSLPPICI[Abu]D-OH
modifications: disulfide 3-11; N-terminus assumed
SMILES: CC[C@H](NC(=O)[C@@H](NC(=O)[C@@H]1CSSC[C@H](NC(=O)[C@@H](NC(=O)CNC)[C@@H](C)CC)C(=O)N[C@@H](CO)C(=O)N[C@@H](CCCNC(=N)N)C(=O)N[C@@H](CO)C(=O)N[C@@H](CC(C)C)C(=O)N2CCC[C@H]2C(=O)N2CCC[C@H]2C(=O)N[C@@H]([C@@H](C)CC)C(=O)N1)[C@@H](C)CC)C(=O)N[C@@H](CC(=O)O)C(=O)O
B10: Example 286: GIC+SRSLPPIC+I-(Aib)-D-OH (peptide)
peptide: GICSRSLPPICI[Aib]D-OH
modifications: disulfide 3-11; N-terminus assumed
SMILES: CC[C@H](C)[C@H](NC(=O)CN)C(=O)N[C@H]1CSSC[C@@H](C(=O)N[C@H](C(=O)NC(C)(C)C(=O)N[C@@H](CC(=O)O)C(=O)O)[C@@H](C)CC)NC(=O)[C@H]([C@@H](C)CC)NC(=O)[C@@H]2CCCN2C(=O)[C@@H]2CCCN2C(=O)[C@H](CC(C)C)NC(=O)[C@H](CO)NC(=O)[C@H](CCCNC(=N)N)NC(=O)[C@H](CO)NC1=O
B11: Example 367: ((N-Me)G)-IC+SRSLPPIC+I-(Oic)-D-OH (peptide)
peptide: [Sar]ICSRSLPPICI[Oic]D-OH
modifications: disulfide 3-11; N-terminus assumed
SMILES: CC[C@H](C)[C@H](NC(=O)CNC)C(=O)N[C@H]1CSSC[C@@H](C(=O)N[C@H](C(=O)N2[C@H](C(=O)N[C@@H](CC(=O)O)C(=O)O)C[C@@H]3CCCC[C@@H]32)[C@@H](C)CC)NC(=O)[C@H]([C@@H](C)CC)NC(=O)[C@@H]2CCCN2C(=O)[C@@H]2CCCN2C(=O)[C@H](CC(C)C)NC(=O)[C@H](CO)NC(=O)[C@H](CCCNC(=N)N)NC(=O)[C@H](CO)NC1=O

11 molecules from US20210246166A1 (Bayer, published 2021) can be followed below.

Bridge positions count the residues as written; N and C are the ends. Square brackets hold non-standard residues; d marks the D form. Ends that are not written are not given here. Pro(trans-4-F) = O=C(O)[C@@H]1C[C@@H](F)CN1; Oic = O=C(O)[C@@H]1C[C@@H]2CCCC[C@@H]2N1; Hyp = O=C(O)[C@@H]1C[C@@H](O)CN1; tBuAla = CC(C)(C)C[C@H](N)C(=O)O; aThr = C[C@H](O)[C@H](N)C(=O)O; Chg = N[C@H](C(=O)O)C1CCCCC1; Pen = CC(C)(S)[C@H](N)C(=O)O; αMeP = C[C@@]1(C(=O)O)CCCN1; NMeC = CN[C@@H](CS)C(=O)O; Orn = NCCC[C@H](N)C(=O)O; Abu = CC[C@H](N)C(=O)O; Aib = CC(C)(N)C(=O)O; Sar = CNCC(=O)O

One experiment concerns the target T1, recombinant human MASP1 active protease …. The experiment can be described thus: cell-based or functional assay.
With B1, the “human MASP1 IC50” value is 2 nM.
For B2, the “human MASP1 IC50” value stood at 2 nM.

The next experiment has as its target T2, recombinant rat MASP1 active protease …. The experiment can be described thus: cell-based or functional assay.
With B3, the “rat MASP1 IC50” value was determined as 83 nM.
On the same count and under the same terms, next, B4: 84 nM; B5: 350 nM; B6: 250 nM.
As for B7, the “rat MASP1 IC50” value turned out to be 470 nM.
For the molecule B8, the “rat MASP1 IC50” value came to 180 nM.
B9: the “rat MASP1 IC50” value was 220 nM.
Still for that read-out and setting: as for B10, the figure is 230 nM; as for B11, 120 nM.
